assay: soluble on expression in E. coli; label from the status in PepcDB or PDB records

Q: For “MGSDKIHHHHHHMYSSAHSGSNESNLIAFPMAATSKTALLVQVDPFQSEVWSTALASQSITVIKEGADVDLSNMLGQMASAGLTLPDLIIVDMATEGMNPFAFCRFCREQHPSVKVLLTNSTQTQIAESEQRWAMSQGAQDLLPAFQTDSLLTDLLTALGRTSGVLGLPNLDQQALIQILPKLLEPKAEATETVALPAPSVAEPSVPPAPKAQRTYRGRPY”, which “soluble on expression in E. coli” value is on record?
A: not soluble

Q: Which “soluble on expression in E. coli” value does the source give for “MGSDKIHHHHHHMYTFQPGDHLVTNIDPLGLTEHHGLYVGHGHVIHLSKQGIIEEINLQQFAGGHSVRVKKSTLFPHQAIELARSQLGHSPYGVATNNCEHFVNECLEGSSTSNQVSNLTHIALQGSARAGLLGSSASKLATGTVANVVLTSTAIKMTGEYLGLPDNVNTLLGTPGDLVAKPAECLLKGTSQTLGETYTCLRQGEMTGAGIKLVTGSIETGLNTVLTTAEVGINGVKAGAELIADAWHWLRS” here?
A: not soluble

Q: For “MGSDKIHHHHHHMYYPYWQLGGTPWYQPPVQQQAPPYFQLPPLYTGPYSSPYQTSLVPYLTRPLRTPETPQDRTRTIMRDLMTAIDGEHRAIQCYQQMAQHAPTKKEQQQIEEIITDEQRHLRTFSALYQQITEKQHEPTTDQKISHNYEKALAFAVEEEQKTVDFYLEVADHAPNLQIREAFQRAAKDEQNHAVWFLYFLTKRLTSKL”, which “soluble on expression in E. coli” value is on record?
A: not soluble

Q: Which “soluble on expression in E. coli” value does the source give for “MGSDKIHHHHHHMYYRKRFCVGRNNERRMKAMARDTGLDHLGAMRAFVRVVEMGSFSAVAKEMHVSTSTVARKITAIEEALGVALLHRSTHSVTLTEAGHIYLERAVTLIADLDDTLRVVAELNAQPSGPLKLTAPVAFGRRHLAPLIAPFLARYPTIQLDVRLTDNHNDLVAGGYDLDIHEGENYLDNLVVHRLSRNDSILCATPGYLDRCGRPATPDDLLHHNCLRYVHPEGDPRWELVRGDARHSVLPAGNLVTDHSELLLEATCAGLGIAEFEIWLVRDLLASGRLEAVLPRYRLHNKLTGEHIYIAYLANRRSSAKLRVLKDFLADQLAHIGELSEVELMKIRDAGA” here?
A: not soluble

Q: Which “soluble on expression in E. coli” value does the source give for “MGSDKIHHHHHHSDDDDEKMVNPVPQTTFTGENGLQLTYNGAPMPGKKVTFTPDATNAQKATLRLEGEFDLNGILGKAKSAAAREDVSMPTAPGVLPGSPVVTLPVDLTINGDQCSFAGTSETDYCTFSYKGEVSAGAMELALSEVKLKNAKLAGMTWKLKPYNQEVEEQDPVRLVWESEKGIPLFGSFEMPVESVLKIALRMPLIAVGAENKVSATDMLGTVLKDVTFMEDGNIVATYKDAANGGTEWTKSPVNLAQYVVENDNQIKVFLNPAAIIAAVNNAGRAIDVQTVIQQAIQILYPMLVNGVPVAFEQTEDALSVYLNTELLLPLLKTLVVPLLSDEEVVAMLVELMKKDPDFGEMAGLAEPMLKAFPEIIESTTKVEIGLNFVK” here?
A: not soluble

Q: Which “soluble on expression in E. coli” value does the source give for “MGSDKIHHHHHHSQTRYFADKKVSKSKNIVAADKVTDKEKETETWTSIPQRAVAYQELTTYEDSNLTKSVGKIPAKTQLDIPEIVGKSFKLKTGKYISTDKKAVISDLTISRESINTTIYTDKSVNVFYNPVTTYDNQIMTNLSGTHQLSADKMAKTNWGTYYEVSLDNGQKGWVSENDISLENPKIKQVQALLNQKYNDKKYSIYVKELDDKFTAGVNQEQKMYSASLSKIPILYWTQKRLNEGLASLDDKLLYTPAINTFYGSYKPEGTGNLPKTADNKYYSLQDVINRTAKLSDNVGSNMLAYYETQEFNPNYQKEINRIAGQEWNPKERNASAQMVGRMLEALYNEGGASFNALFDTSFDDVKIRAGVPKNISVAHKIGGADTDNHDAAIVFASKPYLLVIETDGATDDEIKAISQDVYGVMK” here?
A: not soluble

Q: With “MGSDKIHHHHHHVFKYMKKLLIVTTVPETLATILQSQPTFLNEEYEVFLASSTGIQQVADIENVRCFTINMYRGYSPFKDLFSIFKMFYLLLRIKPHIIHSYTPKAGLVCAIAAYFARVPHRIHTFTGLLFPTATGFKHLILKFTDKLVIYLNTHIVCEGYGVWRQFYRFGFSESKFEVIGNGNIAGVDLCYFDPDIVDLSVKSNLISSYKLEGCKVFLYVGRLNVDKGIKELVNAFINLNDNSKLLIVGALDTTAPPDDDTLLKIKVNPNIIDFGFLNDIRPIMSISSCLILPSYREGFPNVVLQAGAMELPCIVTDIPGCNEIISHDVNGWLVKPKCIDALESAMNDFLSLDNAKLLSVKKEASENIKTNFERSFYQKKLLNFYNKVLEND” as the sequence, how does the “soluble on expression in E. coli” value read?
A: not soluble

Q: Which “soluble on expression in E. coli” value does the source give for “MGSDKIHHHHHHVKIILRKIRTLVTHPGFRANPIAVLGRCAALLGRVALGRPFVFSLTPAGERLRVDANLRYTTVTTFVMRDHLEPELHYLAHLLAPGDTFIDIGANVGVYSLRAATLVGAAGRVIAVEPGRDALTALRANLALNPGRTITVVAAALSDHIGTATLYHVGNGYDPQAFSLLSDETAKDAETVPLTTLDAVCADLAIDRLDCLKMDAEGVEPMVLAGGRATLERFHPAVILEMNTAILERRGSPTDQAWTFLAGLGYGFHRILGGRPVRLTAPPDDFCNVIATHPANEKIG” here?
A: not soluble

Q: Which “soluble on expression in E. coli” value does the source give for “MGSDKIHHHHHHVLADAVAWTARTLPVRPSVPVLAGMLLDADDVDGHQRLTLSSFDYEVSAQVSVDVDIDEPGRILVSGKLLAEIVRNLPPQTVEVSTDGAKVVVSCGSAKFTILTLPVEDYPTLPAMPALTGSVLSDTFAAAVSQVAVAAGRDDTLPMLTGVRIEIEGSTVTLVSTDRYRLAVRELTWTPEDPNVSAVALVPAKTLADTAKSLTGGAQISIALSTAENGGEGMIGFEGGGRRTTTRLLEGEFPKYRKLLPESFNSVAEVQKNEFIEAVKRVSLVAERNTPLRLSFTSDRLVLEAGTGEEAQAVEELSATLEGDDIQIAFNSTFLLDGLNAIESDVAHLQFTTSTKPAIITGKPADDGTASDYRYLIMPVRISN” here?
A: not soluble

Q: With “MGSDKIHHHHHHVLADSTGHGLSAAMPIMRVASTFRAMVSKGFSLATLIYELNSKVHRENPDDRFVACIVLEVDFYRKKIHIWNGGMPPVYIKNHLETETVSDHYPVKNIIKFKSTNMALGILPSQTFVADIATVDLPVVGHACLFSDGLIEQYTNENKPFGIETLNSLFIQYASELIPYLTENFKKVFDGKPITDDITVCTLDFERLNEWHQQNNICLARSNMDGEFDWEVKLAGPMLLSAEYLNSLNQFLGMFGFATSFCQRVFTVVAELFSNAIDHGVLKLDSRLKSDPDGFELYHSIRDSSSARLTMNDWVKVSLVWCSITNELHICVADSGQGFKGYKNTVVDIPQLSGRGLSLVKTLSKTYELVSPGNITKVIME” as the sequence, how does the “soluble on expression in E. coli” value read?
A: not soluble

Q: Which “soluble on expression in E. coli” value does the source give for “MGSDKIHHHHHHVPEQHICTYEYRLANPNPRPIVGRFQLNFTLDVNGCESGTPVLYLEHVQVHATVRYLKRGDLKLTLFSPSGTRSVLLPPRPQDFNANGFHKWPFLSVQQWGEDPRGTWLLMVESVTTNPAATGTFHDWTLLLYGTADPAQSGDPVYSATPATSQGVLSRVHQLTSQILITIAIHLVVNA” here?
A: not soluble

Q: Which “soluble on expression in E. coli” value does the source give for “MGSDKIHHHHHHVSQLSPWQHYQQDLKRDDFSHDLAQEQAVTALQRVYEELIAATKPASGIAALLKAVTGKNKRASVQGLYLWGGVGRGKTYLMDTFFDALPTEDKLRAHFHRFMHQLHHDLGELKGVQDPLLTIAKKMAKQYQVICFDEFFVSDITDAMLLGTLFQALFKEGVVLVATSNIIPDELYKNGLQRARFLPAIALINQHCQILNVDSGIDYRLRTLEQAEIYHHPLDAQADVNLLQYFKQLAPESEVFTHALDIDGRKIAIRQQSQGVLLVDFRALCDGPRSQRDYMEIARLYHTVLLSGLVQMGAQQTGDDIARRFLAVVDEFYERNVKLIISAQVSLEQIYTQGQLDFEFRRCRSRLIEMQSHDYLALEHLP” here?
A: not soluble

Q: For “MGSDKIHHHHHHVSVDDLIDTTSLELLVAPAPLADFLRQSSAMHRHLCPRQVLGARMGMYAGELLGLTLPQKNKRLYTFVETDGCFADGVSVTTGCWLGRRTMRLMDEGKVAATFVDTQTGQAFRIAPRPNVRDLARQYAPNARSRWHAYLIAYQLMPLTDLLIAQPITLTVDLKAIISRNGLRTTCDHCGEEIINAREVIRDGQTLCRTCGGEGYYTITG”, which “soluble on expression in E. coli” value is on record?
A: not soluble

Q: With “MGSDKIHHHHHHVTFFERYSRVLFERYQGKVKYWLTFNEINGAQFMPMLSLGMAVREDENMLQSTYQGLHHQFVASSLATKAAREIDPTMQIGCMLIAAPVYPFSSNPVDVQFALEEERMMNYFCGDVHVRGAYPAFAGRFFSENNIELVVEDGDLELLRDYTVDFFSLSYYMSRTEKAEKDGNEAGGNIMSGVKNPYLKASDWGWEINPDGLRIILNKLYDRYQIPLFIVENGLGAYDEIIASNGATLTQTSVSK” as the sequence, how does the “soluble on expression in E. coli” value read?
A: not soluble

Q: Which “soluble on expression in E. coli” value does the source give for “MGSDKIHHHHHHVTHKDMEYALDRVLAGSEKRSRSLVEEEREVVAYHEAGHALVGWMLEHTDALLKYEISIFRQKFRFPLKPLKSRRKVHFLREFLCNFPQRILENFKKIQKSYSKIQIFHQKFTQNIKKLKFPVLGEFLKFPANNSSEFLKNLKNFIKKIFFFEIFGPKLPQKVTIIPRTSAALGFAQYSPRDKHLFSKDELFDRMCMMLGGRCAENLKFGRATSGAQDDLQKVTKSAYAQVKLYGMSSIVGPLSFPNTEGFQIKPYSKKFASTFDQEATLIVAKANEATTDLIKNNMDKLETIAQALLKREVLNYEDVKKL” here?
A: not soluble

Q: With “MGSDKIHHHHHHVTTQLKETPPSDTSSINLEAEFQASNIKEVLDKLDRELIGLKPVKTRIRETAALLLVDRVRKKLDLTAGAPSLHMSFTGNPGTGKTTVAQRMSEILHRLGYVREGHLVSVTRDDLVGQYIGHTAPKTKEVIKKAMGGVLFIDEAYYLYKPENERDYGAESIEILLQVMENNRDDLVVILAGYKDRMDKFFRSNPGMRSRIAHHIDFPDYSPDELVAIAKLMLAAQNYRLSAEAEKAFGEYIRLRMKMEHFANARSVRNALDRARLRQANRLFEGAKKNLSRTDLITIEAEDIRASRVFVEGAVDLDGDEGASRELSEESV” as the sequence, how does the “soluble on expression in E. coli” value read?
A: not soluble

Q: With “MGSDKIHHHHHHVVTPEDSPRYPYGNCLYVEDDIPAVLDLGAGGRAFQEIPCEKVQLALISHSHFDHLHGDSFFPRAGLYAGKEESKTYSDENEYLKFHGYELWAEMMPGIKRVAFSEVKPLPDDVPVKPGFRYIPLAGIFKDMERFQLGKTEITAIHLPGHTTGHYGFWIEKEGILFSGDMDLVVAGPWYSSNSADIGQLVSSVQRIREINPGLIVPSHRRLIFDKIEKRLDQYIGVVFKRQERILDLLKEAHTIDELLEYQMVFHGRRDIYLLFWEKMTLRNHIRFLLWEGMVEEVEKGRYKRC” as the sequence, how does the “soluble on expression in E. coli” value read?
A: not soluble

Q: For “MGSDKIHHHHHHYQPEKHAVVKSDRGDGRLLSTYAIVHEMLKDTHPQYAYRSGMSAQEFTQWQDGVRAAMVEIMKFPEIKRQPSPVCVKTEKKEGYILEKWEFYPFPKSVSTFLVLKPEHLKGAVPGVLCIPGSGRTKEGLVGEPGICDKLTEDYNNPKVSMALNMVKEGYVAVAVDNAAAGEASDLECYDKGWNYDYDVVSRFLLELGWSWLGYTSYLDMQVLNWMKAQSYIRKDRIVISGFSLGTEPMMVLGVLDKDIYAFVYNDFLCQTQERAVVMTKPDKENRRPFPNSIRHLIPGYWRYFNFPDVVASLAPRPIIFTEGGLDRDFRLVQSAYAASGKPENAEFHHYPKFADKAVRKDVEHLDEGLDSKTYFEAVNVDPPSHYFKNELVIPWLRKVLK”, which “soluble on expression in E. coli” value is on record?
A: not soluble

Q: For “MGSIGSMGKPIEGFLVAAIQFPVPIVNSRKDIDHNIESIIRTLHATKAGYPGVELIIFPEYSTQGLNTAKWLSEEFLLDVPGKETELYAKACKEAKVYGVFSIMERNPDSNKNPYNTAIIIDPQGEIILKYRKLFPWNPIEPWYPGDLGMPVCEGPGGSKLAVCICHDGMIPELAREAAYKGCNVYIRISGYSTQVNDQWILTNRSNAWHNLMYTVSVNLAGYDNVFYYFGEGQICNFDGTTLVQGHRNPWEIVTGEIYPKMADNARLSWGLENNIYNLGHRGYVAKPGGEHDAGLTYIKDLAAGKYKLPWEDHMKIKDGSIYGYPTTGGRFGK”, which “soluble on expression in E. coli” value is on record?
A: soluble

Q: Which “soluble on expression in E. coli” value does the source give for “MGSLNGGSPEGVESQDGVDHFRAMIVEFMASKKMQLEFPPSLNSHDRLRVHQIAEEHGLRHDSSGEGKRRFITVSKRAGSHHHHHH” here?
A: soluble
